This test addresses T1, Human CD123 on stably transfected CHO-K1 cells (CHO-CD123) (human, UniProt P26951 19-378).
T1 construct: whole, on cells; also called IL-3 receptor alpha subunit; cell surface CD123
Put plainly: flow cytometry on CHO-CD123 cells, 1 µg/ml. As to the method:
Log phase growing monolayer cells were harvested with trypsin/EDTA solution (ATCC) and washed once with culture media and once with PBS containing 1% BSA. 1×10⁶ cells were resuspended in 200 μl staining solution (PBS, 1% BSA, 3% normal goat serum and indicated concentration of 12F1, 12F1scFv-Fc or CD123xCD3 BIf) at room temperature for 1 hour. Human IgG1 (Sigma) was used as a control. Cells were rinsed twice with PBS containing 1% BSA and incubated with PE-conjugated goat anti-human or anti-mouse antibody (Jackson Lab) at room temperature for 1 hour. Cells were thrice washed with PBS containing 1% BSA, resuspended in 500 μl of PBS and analyzed on a Beckman Coulter Cytomic FC 500 flow cytometry.
The abilities of 12F1scFv-Fc and CD123xCD3 BIf to bind cell surface CD123 were examined by flow cytometry using CHO-K1 and CHO-CD123. 12F1 murine monoclonal antibody was used as a positive control. […] The binding affinities were tested in cell-based ELISA with CHO-CD123 cells.

Experimental findings from patent publication US20180222996A1 (SCOTT AND WHITE HEALTHCARE SWH, published 2018) are described below.

T1 sequence (P26951 19-378): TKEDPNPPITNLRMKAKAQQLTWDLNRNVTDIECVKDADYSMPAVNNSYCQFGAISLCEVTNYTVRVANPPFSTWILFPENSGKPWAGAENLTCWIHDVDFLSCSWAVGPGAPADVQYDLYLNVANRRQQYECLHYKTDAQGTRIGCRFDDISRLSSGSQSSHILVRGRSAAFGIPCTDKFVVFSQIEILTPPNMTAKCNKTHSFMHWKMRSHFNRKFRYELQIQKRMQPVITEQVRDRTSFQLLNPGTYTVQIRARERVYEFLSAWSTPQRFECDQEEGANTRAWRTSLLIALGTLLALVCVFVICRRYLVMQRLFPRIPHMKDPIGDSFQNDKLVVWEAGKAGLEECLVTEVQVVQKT

B1: 12F1 murine anti-human CD123 monoclonal antibody (antibody, V domains shown)
VH: VQLQESGPGLVKPSQSLSLTCSVTDYSITSGYYWNWIRQFPGNKLEWMGYISYDGSNNYNPSLKNRISITRDTSKNQFFLKLSSVTTEDTATYYCSRGEGFYFDSWGQGTTLTVSS
VL: DIMMSQSPSSLAVSVGEKFTMTCKSSQSLFFGSTQKNYLAWYQQKPGQSPKLLIYWASTRESGVPDRFTGSGSGTDFTLAISSVMPEDLAVYYCQQYYNYPWTFGGGTKLEIK
notes: Murine monoclonal antibody from hybridoma
Regarding B1, the binding result was “binds”.
